# In article doi:10.1101/2025.04.11.648320 (bioRxiv, 2025):
# “And” between values parts separate entries of the source, which are not always exact repeats. Identical values can stand only once.
# B1: HIR2-HA expressed in Nicotiana benthamiana (natural protein, Arabidopsis thaliana, UniProt Q9SRH6 1-285, looked up)
# chain: MGNLFCCVLVKQSDVAVKERFGKFQKVLNPGLQFVPWVIGDYVAGTLTLRLQQLDVQCETKTKDNVFVTVVASIQYRVLADKASDAFYRLSNPTTQIKAYVFDVIRACVPKLNLDDVFEQKNEIAKSVEEELDKAMTAYGYEILQTLIIDIEPDQQVKRAMNEINAAARMRVAASEKAEAEKIIQIKRAEGEAESKYLSGLGIARQRQAIVDGLRDSVLGFAGNVPGTSAKDVLDMVMMTQYFDTMRDIGATSKSSAVFIPHGPGAVSDVAAQIRNGLLQANNAS
# Biological target: the molecule itself
# Assay: SDS-PAGE with immunoblot
protein,measurement,value
B1,stoichiometry N,2 and 4 and 6
